Reference: patent publication US20230203157A1 (published 2023)

B1: LoSTIM 7 (bispecific antibody, mouse IgG2a, kappa)
heavy: DVALTQTPVAQPVTLGDQASISCRSSQSLVHSNGRTYLEWYLQKPGQSPQLLIYKVSNRFSGVPDRFIGSGSGSDFTLTISRVEPEDLGVYYCFQATHDPNTFGAGTKLELKGGGGSGGGGSGGGGSQVQLQQSGAELVKPGSSVKISCKASGYTFTSHFIHWIKQQPGNGLEWIGGIYPGDGDTEYNQQFNGKATLTADKSSSTAYMRLSSLTSEDSAVYFCATRVPSYWFFDFWGPGTMVTVSSGGGGAGGGGDVQLVESGGGLVQPGGSRKLSCAASGFTFSSFGMHWVRQAPEKGLEWVAYISSGSNTIYYADTVKGRFTISRDNPKNTLFLQMTSLRSEDTAMYYCALTTGSWFAYWGQGTLVTVSAAKTTAPSVYPLAPVCGDTTGSSVTLGCLVKGYFPEPVTLTWNSGSLSSGVHTFPAVLQSDLYTLSSSVTVTSSTWPSQSITCNVAHPASSTKVDKKIEPRGPTIKPCPPCKCPAPNLEGGPSVFIFPPKIKDVLMISLSPIVTCVVVDVSEDDPDVQISWFVNNVEVHTAQTQTHREDYNSTLRVVSALPIQHQDWMSGKAFACAVNNKDLPAPIERTISKPKGSVRAPQVYVLPPPEEEMTKKQVTLTCMVTDFMPEDIYVEWTNNGKTELNYKNTEPVLDSDGSYFMYSKLRVEKKNWVERNSYSCSVVHEGLHNHHTTKSFSRTPGK
light: DILLTQSPAILSVRPGERVSFSCRASQSLGTSIHWYQQRTDGSPRLLIKYASESISGIPSRFSGSGSGTDFTLSINSVESEDIADYYCQQSNSWPITFGAGTKLELKRADAAPTVSIFPPSSEQLTSGGASVVCFLNNFYPKDINVKWKIDGSERQNGVLNSWTDQDSKDSTYSMSSTLTLTKDEYERHNSYTCEATHKTSTSPIVKSFNRNEC
B2: LoSTIM 8 (bispecific antibody, mouse IgG2a, kappa)
heavy: DVQLVESGGGLVQPGGSRKLSCAASGFTFSSFGMHWVRQAPEKGLEWVAYISSGSNTIYYADTVKGRFTISRDNPKNTLFLQMTSLRSEDTAMYYCALTTGSWFAYWGQGTLVTVSAAKTTAPSVYPLAPVCGDTTGSSVTLGCLVKGYFPEPVTLTWNSGSLSSGVHTFPAVLQSDLYTLSSSVTVTSSTWPSQSITCNVAHPASSTKVDKKIEPRGPTIKPCPPCKCPAPNLEGGPSVFIFPPKIKDVLMISLSPIVTCVVVDVSEDDPDVQISWFVNNVEVHTAQTQTHREDYNSTLRVVSALPIQHQDWMSGKAFACAVNNKDLPAPIERTISKPKGSVRAPQVYVLPPPEEEMTKKQVTLTCMVTDFMPEDIYVEWTNNGKTELNYKNTEPVLDSDGSYFMYSKLRVEKKNWVERNSYSCSVVHEGLHNHHTTKSFSRTPGKGGGGAGGGGDVALTQTPVAQPVTLGDQASISCRSSQSLVHSNGRTYLEWYLQKPGQSPQLLIYKVSNRFSGVPDRFIGSGSGSDFTLTISRVEPEDLGVYYCFQATHDPNTFGAGTKLELKGGGGSGGGGSGGGGSQVQLQQSGAELVKPGSSVKISCKASGYTFTSHFIHWIKQQPGNGLEWIGGIYPGDGDTEYNQQFNGKATLTADKSSSTAYMRLSSLTSEDSAVYFCATRVPSYWFFDFWGPGTMVTVSS
light: B1 light
B3: LoSTIM 3 (bispecific antibody, mouse IgG2a, kappa)
heavy: DVALTQTPVAQPVTLGDQASISCRSSQSLVHSNGRTYLEWYLQKPGQSPQLLIYKVSNRFSGVPDRFIGSGSGSDFTLTISRVEPEDLGVYYCFQATHDPNTFGAGTKLELKGGGGSGGGGSGGGGSQVQLQQSGAELVKPGSSVKISCKASGYTFTSHFIHWIKQQPGNGLEWIGGIYPGDGDTEYNQQFNGKATLTADKSSSTAYMRLSSLTSEDSAVYFCATRVPSYWFFDFWGPGTMVTVSSGGGGAGGGGEVQVVETGGGLVQPGSSLKLSCESSGFTFSSTWMNWVRQAPGKGLEWVALVKDKYSNYEANYAESVKGRFIISRDDSKNRVYLQMNTLRDQDTATYHCTRSRGYKNWYFDFWGPGTMVTVSSAKTTAPSVYPLAPVCGDTTGSSVTLGCLVKGYFPEPVTLTWNSGSLSSGVHTFPAVLQSDLYTLSSSVTVTSSTWPSQSITCNVAHPASSTKVDKKIEPRGPTIKPCPPCKCPAPNLEGGPSVFIFPPKIKDVLMISLSPIVTCVVVDVSEDDPDVQISWFVNNVEVHTAQTQTHREDYNSTLRVVSALPIQHQDWMSGKAFACAVNNKDLPAPIERTISKPKGSVRAPQVYVLPPPEEEMTKKQVTLTCMVTDFMPEDIYVEWTNNGKTELNYKNTEPVLDSDGSYFMYSKLRVEKKNWVERNSYSCSVVHEGLHNHHTTKSFSRTPGK
light: DIQMTQSPPSLSASLGDKVTITCQASQNINNYIAWYQQKPGKAPGLLILYTSTLVSGTPSRFSGSGSGRDYSFSISNVESEDIASYYCLQYDNSPRTFGGGTKLELKRADAAPTVSIFPPSSEQLTSGGASVVCFLNNFYPKDINVKWKIDGSERQNGVLNSWTDQDSKDSTYSMSSTLTLTKDEYERHNSYTCEATHKTSTSPIVKSFNRNEC
B4: LoSTIM 4 (bispecific antibody, mouse IgG2a, kappa)
heavy: EVQVVETGGGLVQPGSSLKLSCESSGFTFSSTWMNWVRQAPGKGLEWVALVKDKYSNYEANYAESVKGRFIISRDDSKNRVYLQMNTLRDQDTATYHCTRSRGYKNWYFDFWGPGTMVTVSSAKTTAPSVYPLAPVCGDTTGSSVTLGCLVKGYFPEPVTLTWNSGSLSSGVHTFPAVLQSDLYTLSSSVTVTSSTWPSQSITCNVAHPASSTKVDKKIEPRGPTIKPCPPCKCPAPNLEGGPSVFIFPPKIKDVLMISLSPIVTCVVVDVSEDDPDVQISWFVNNVEVHTAQTQTHREDYNSTLRVVSALPIQHQDWMSGKAFACAVNNKDLPAPIERTISKPKGSVRAPQVYVLPPPEEEMTKKQVTLTCMVTDFMPEDIYVEWTNNGKTELNYKNTEPVLDSDGSYFMYSKLRVEKKNWVERNSYSCSVVHEGLHNHHTTKSFSRTPGKGGGGAGGGGDVALTQTPVAQPVTLGDQASISCRSSQSLVHSNGRTYLEWYLQKPGQSPQLLIYKVSNRFSGVPDRFIGSGSGSDFTLTISRVEPEDLGVYYCFQATHDPNTFGAGTKLELKGGGGSGGGGSGGGGSQVQLQQSGAELVKPGSSVKISCKASGYTFTSHFIHWIKQQPGNGLEWIGGIYPGDGDTEYNQQFNGKATLTADKSSSTAYMRLSSLTSEDSAVYFCATRVPSYWFFDFWGPGTMVTVSS
light: B3 light

Molecular target: T1, mouse PD-1 (mouse, UniProt Q02242 25-288)
T1 sequence (looked up): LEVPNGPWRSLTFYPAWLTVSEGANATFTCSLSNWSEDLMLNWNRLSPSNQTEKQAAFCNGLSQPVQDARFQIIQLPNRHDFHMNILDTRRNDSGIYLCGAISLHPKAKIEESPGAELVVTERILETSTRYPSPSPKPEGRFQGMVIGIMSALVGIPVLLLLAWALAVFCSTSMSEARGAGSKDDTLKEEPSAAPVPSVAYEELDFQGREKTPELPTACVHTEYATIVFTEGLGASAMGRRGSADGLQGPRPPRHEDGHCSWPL
Assay: cell-based or functional assay

Binder | proliferation by CFSE dilution; BALB/c CD8 T cells with allogeneic C57B6 BMDDC, 0.5 micromolar, 84 h [%] | proliferation by CFSE dilution; OT-I CD8 T cells with SIINFEKL-pulsed C57B6 BMDDC, 0.5 micromolar, 72 h [%] | CD69 expression; OT-I CD8 T cells with SIINFEKL-pulsed BMDDC, 0.5 micromolar, 57 h [%] | proliferation (CFSE dilution); OT-I CD8 T cells with SIINFEKL-pulsed BMDDC, 0.5 micromolar, 57 h [%]
B1 | 63.6 | 43.9 | – | –
B2 | 69.1 | 78.4 | – | –
B3 | – | – | 61 | 90.1
B4 | – | – | 79 | 96.1
